Assay results taken from patent US20160264674A1 (ADURO BIOTECH HOLDINGS EUROPE B V, published 2016).
Residue numbers refer to the chain shown, from its start. Names and notes keep the numbering of the source. Blank lines part the entries; values can stand above or below the binder they belong to.

Experiments:
[1] = target: T1, FLAG-tagged human APRIL (human, UniProt O75888 105-250, limits assumed); experiment: FLAG-APRIL ELISA after 10 min at 70 °C, antibody at 0.316 µg/ml
T1 construct: also called FLAG-tagged APRIL; FLAG-APRIL; not shown: FLAG tag
T1 sequence (looked up): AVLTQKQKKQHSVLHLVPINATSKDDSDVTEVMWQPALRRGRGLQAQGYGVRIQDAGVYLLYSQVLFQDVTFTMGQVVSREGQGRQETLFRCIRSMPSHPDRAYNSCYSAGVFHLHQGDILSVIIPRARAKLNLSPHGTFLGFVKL

[2] = target: T1, FLAG-tagged human APRIL; experiment: ELISA: FLAG-tagged human APRIL captured on anti-FLAG plate, purified antibody titrated
[3] = target: T1, FLAG-tagged human APRIL; experiment: FLAG-APRIL ELISA after 10 min at 70 °C, antibody at 1 µg/ml
[4] = target: T1, FLAG-tagged human APRIL; experiment: FLAG-APRIL ELISA after 10 min at 70 °C, antibody at 3.16 µg/ml
[5] = target: T1, FLAG-tagged human APRIL; experiment: FLAG-APRIL ELISA after 10 min at 65 °C, antibody at 3.16 µg/ml
Method: (§1) The plasmids encoding the VH and VL constructs were mixed in a 1:3 ratio (4 μg in total) and transiently expressed by transfection into HEK293T human embryonic kidney cells (HEK293T/17, ATCC-CRL-11268), using Lipofectamine 2000 transfection reagent (Invitrogen) following the manufacturer's instructions. Cell supernatants were harvested after 5 days and tested for expression of antibody and binding to APRIL using an enzyme-linked immuno assay (ELISA). In these ELISAs, all incubation steps were followed by a wash step with PBST (PBS with 0.01% Tween 20). Maxisorb 96-wells plates (Nunc) were coated with 0.5 μg/ml anti-FLAG (Sigma) or anti-IgG4 (Jackson laboratories) and incubated overnight at 4° C. Subsequently the anti-FLAG coated 96-wells plates were incubated with FLAG-tagged human APRIL for 1 hour at room temperature. Next, supernatants and dilutions thereof were incubated for 1 hour, which was followed by an incubation of 1 hour with mouse anti-human IgG HRP-conjugate (Southern Biotechnology).
(§2) To determine the effect of humanization on the stability of the antibodies, humanized antibodies were exposed to a range of temperatures for 10 minutes. Purified antibodies were diluted to 3.16 μg/ml and dilutions thereof in PBS. Next, these solutions were exposed to 65° C. or 70° C. and residual binding after heat treatment of the antibodies was measured using the FLAG-tagged APRIL ELISA assay as described before (see Table 6).
(§3) In addition, the stability of the substituted humanized antibodies was improved as determined using thermostability studies as described in Example 3 (see Table 9).

[6] = target: T1, FLAG-tagged human APRIL; experiment: competition ELISA: antibody premixed with FLAG-tagged APRIL, added to coated Fc-BCMA, anti-FLAG HRP
Method: A subset of humanized antibodies described above was selected for further analyses. Again, plasmids encoding the VH and VL constructs were mixed in a 1:3 ratio (32 μg) and transiently expressed by transfection into (8*10⁶) HEK293T human embryonic kidney cells (HEK293T), using Lipofectamine 2000 transfection reagent (Invitrogen) according to the manufacturer's instructions. Supernatants were harvested (10 ml) and antibodies were purified using MabSelect Sure Protein A resin according to the manufacturer's instructions (GE Healthcare). Buffer was exchanged for PBS using Zeba desalting columns (Thermo Scientific). The concentration of purified antibodies was determined based on OD280 (Nanodrop ND-1000). The binding of the purified antibodies to APRIL was established using the above described APRIL ELISA. The blocking capability of the humanized antibodies with BCMA and TACI receptors, was tested in a competition ELISA. In these ELISAs, all incubation steps were followed by a wash step with PBST (PBS with 0.01% Tween 20). Maxisorb 96-wells plates (Nunc) were coated with 0.5 μg/ml Fc-BCMA (R&D Systems) or Fc-TACI (R&D Systems) and incubated overnight at 4° C. Next, humanized antibodies and dilutions thereof were incubated, premixed with FLAG-tagged APRIL, for 1 hour, which was followed by an incubation of 1 hour with anti-FLAG HRP-conjugate (Sigma). Immunoreactivity was visualized with 100 μl TMB Stabilized Chromagen (Invitrogen). Reactions were stopped with 100 μl 0.5 M H2504 and absorbances were measured at 450 and 620 nm. Calculated EC₅₀ and IC₅₀ representing the concentration at which 50% of the total binding signal or blocking is observed are represented in Table 5.
The antibodies were tested for binding, blockade, and stability as described before.

[7] = target: T1, FLAG-tagged human APRIL; experiment: FLAG-APRIL ELISA after 10 min at 65 °C, antibody at 0.316 µg/ml
Method: as §1, §2, §3

[8] = target: T1, FLAG-tagged human APRIL; experiment: FLAG-APRIL ELISA after 10 min at 65 °C, antibody at 1 µg/ml
Method: as §1, §2, §3

[9] = target: T1, FLAG-tagged human APRIL; experiment: ELISA on FLAG-tagged human APRIL captured by anti-FLAG
Method: as §1
Immunoreactivity was visualized with 100 μl TMB Stabilized Chromagen (Invitrogen). Reactions were stopped with 100 μl 0.5 M H2504 and absorbances were measured at 450 and 620 nm.

B1: VH14_1C.VL15 (antibody, human IgG4, V domains shown)
VH: QVQLVQSGAEVKKPGASVKVSCKASGYTFTSYVMHWVRQAPGQGLEWMGYINPYNDAPKYNEKFKGRVTITSDTSASTAYMELSSLRSDDTAVYYCARGLGYALYYAMDYWGQGTTVTVSS
VL: DIVMTQSPSTLSASVGDRVTITCKASQNVGNNVAWYQQKPGKAPKLLISSASNRDSGVPSRFSGSGSGTEFTLTISSLQPDDFATYFCQQYNIYPFTFGQGTKLEIK
notes: VH14_1 with M70I; Rest is human IgG4 (S241P, Kabat) and human kappa; also called 14_1C.15
% residual binding after heat treatment (room temperature = 100%) [1]: 59.1%
EC50 [2]: 7.04 nM
% residual binding after heat treatment (room temperature = 100%) [3]: 43.8%
% residual binding after heat treatment (room temperature = 100%) [4]: 99.4%
% residual binding after heat treatment (room temperature = 100%) [5]: 86.3%
IC50 [6]: 5.26 nM
% residual binding after heat treatment (room temperature = 100%) [7]: 59.1%
% residual binding after heat treatment (room temperature = 100%) [8]: 44.7%

B2: VH14.VL11 (combination of VH14 with VL11) (antibody, human IgG4, V domains shown)
VH: B1 VH with I70M, S72R
VL: DIVMTQSQKFMPTSVGDRVSVTCKASQNVGNNVAWYQQKPGQSPKALIYSASNRDSGVPDRFTGSGSGTDFTLTITNVQSEDLAEYFCQQYNIYPFTFGAGTKLELK
notes: Human IgG4 (S241P) / human kappa; Member of the group 'combinations of VH11-VH14 with VL10-VL14'
binding result [9]: no binding

B3: VH14_1E.VL15 (antibody, human IgG4, V domains shown)
VH: B1 VH with Q1E, I70M
VL: B1 VL
notes: VH14_1 with Q1E; Rest is human IgG4 (S241P, Kabat) and human kappa; also called 14_1E.15
% residual binding after heat treatment (room temperature = 100%) [1]: 43.3%
EC50 [2]: 2.67 nM
% residual binding after heat treatment (room temperature = 100%) [3]: 28%
% residual binding after heat treatment (room temperature = 100%) [4]: 78.8%
% residual binding after heat treatment (room temperature = 100%) [5]: 82.3%
IC50 [6]: 1.74 nM
% residual binding after heat treatment (room temperature = 100%) [7]: 52%
% residual binding after heat treatment (room temperature = 100%) [8]: 39.7%

B4: VH13.VL14 (combination of VH13 with VL14) (antibody, human IgG4, V domains shown)
VH: B1 VH with I70M, S72R, A76T, A79V, D89E, T116M
VL: B2 VL with V3L, F10I, E105D
notes: as for B2
binding result [9]: no binding

B6: VH14_1G.VL15 (antibody, human IgG4 S228P, kappa, V domains shown)
VH: B1 VH with R67K, V68A, I70M
VL: DIVMTQSPSTLSASVGDRVTITCKASQNVGNNVAWYQQKPGKAPKLLISSASNRDSGVPSRFSGSGSGTEFTLTISSLQPDDFATYFCQQYNIYPFTFGQGTKLEIKR
notes: VH14_1 with R67K and V68A; Humanized IgG4 (S241P, Kabat) with human kappa; also called 14_1G.15; 14_1 G.15
% residual binding after heat treatment (room temperature = 100%) [1]: 23.8%
EC50 [2]: 0.78 nM
% residual binding after heat treatment (room temperature = 100%) [3]: 16.9%
% residual binding after heat treatment (room temperature = 100%) [4]: 78.2%
% residual binding after heat treatment (room temperature = 100%) [5]: 94.5%
IC50 [6]: 1.35 nM
% residual binding after heat treatment (room temperature = 100%) [7]: 34.2%
% residual binding after heat treatment (room temperature = 100%) [8]: 31.3%

B8: VH14_1D.VL15 (antibody, human IgG4, V domains shown)
VH: B1 VH with I70M, T74K
VL: B1 VL
notes: VH14_1 with T74K; Rest is human IgG4 (S241P, Kabat) and human kappa; also called 14_1D.15
% residual binding after heat treatment (room temperature = 100%) [1]: 45.6%
EC50 [2]: 1.95 nM
% residual binding after heat treatment (room temperature = 100%) [3]: 32.7%
% residual binding after heat treatment (room temperature = 100%) [4]: 84.3%
% residual binding after heat treatment (room temperature = 100%) [5]: 75.3%
IC50 [6]: 0.96 nM
% residual binding after heat treatment (room temperature = 100%) [7]: 49.4%
% residual binding after heat treatment (room temperature = 100%) [8]: 39.8%

Other lines, results leading:

binding result [9]: no binding
B5: VH13.VL11 (combination of VH13 with VL11) (antibody, human IgG4, V domains shown)
VH: B1 VH with I70M, S72R, A76T, A79V, D89E, T116M
VL: B2 VL
notes: as for B2

binding result [9]: no binding
B7: VH12.VL14 (combination of VH12 with VL14) (antibody, human IgG4, V domains shown)
VH: B1 VH with I70M, S72R, A76I, S85R
VL: B2 VL with V3L, F10I, E105D
notes: as for B2

binding result [9]: no binding
B9: VH12.VL11 (combination of VH12 with VL11) (antibody, human IgG4, V domains shown)
VH: B1 VH with I70M, S72R, A76I, S85R
VL: B2 VL
notes: as for B2

binding result [9]: no binding
B10: VH11.VL11 (combination of VH11 with VL11) (antibody, human IgG4, V domains shown)
VH: B1 VH with G44R, S72R, D89E
VL: B2 VL
notes: as for B2

binding result [9]: no binding
B11: VH14.VL14 (combination of VH14 with VL14) (antibody, human IgG4, V domains shown)
VH: B1 VH with I70M, S72R
VL: B2 VL with V3L, F10I, E105D
notes: as for B2

binding result [9]: no binding
B12: VH11.VL14 (combination of VH11 with VL14) (antibody, human IgG4, V domains shown)
VH: B1 VH with G44R, S72R, D89E
VL: B2 VL with V3L, F10I, E105D
notes: as for B2
